Measured values taken from paper PMC10899793, “Toxin release by conditional remodelling of ParDE1 from Mycobacterium tuberculosis leads to gyrase inhibition” (Nucleic Acids Research, 2023).

Tests used:
[1] = target: ParE2 toxin of Mycobacterium tuberculosis H37Rv (Mycobacterium tuberculosis H37Rv) (UniProt P9WHG5); experiment: SEC
[2] = target: ParE2 toxin of Mycobacterium tuberculosis H37Rv (Mycobacterium tuberculosis H37Rv) (UniProt P9WHG5); experiment: crystal structure

Substance “ParD2 antitoxin of Mycobacterium tuberculosis H37Rv (natural protein)” has a stoichiometry N (ParD2 per ParE2 (2:2 heterotetramer)) [1] of 1 and a stoichiometry N (ParD2 per ParE2 (1:1 heterodimer)) [2] of 1.
